# Experimental data reported in patent US20260055162A1.
# Tests used:
# Test in all cases: cell-based or functional assay
# [1] = target: AA-TGFB-096 (TGFB-096), TGF-BR2 ECD-CD28 Long TM-Fgr ICD
# [2] = target: AA-TGFB-077 (TGFB-077), TGF-BR2 ECD-GCSFR TM-GCSFR ICD
# [3] = target: AA-TGFB-091 (TGFB-091), TGF-BR2 ECD-CD28 Long TM-Syk ICD
# [4] = target: AA-TGFB-056 (TGFB-056), TGF-BR2 ECD-CD28 Long TM-SLP76 ICD
# [5] = target: AA-TGFB-083 (TGFB-083), TGF-BR2 ECD-NKp44 TM-NKp44 ICD
# [6] = target: AA-TGFB-007 (TGFB-007), TGF-BR2 ECD-TGFBR2 TM-TGFBR2 truncated ICD (Homo sapiens (Human)) (UniProt P37173)
# Sequence of AA-TGFB-007 (TGFB-007), TGF-BR2 ECD-TGFBR2 TM-TGFBR2 truncated ICD (Homo sapiens (Human)) (P37173 23-199, form in doubt): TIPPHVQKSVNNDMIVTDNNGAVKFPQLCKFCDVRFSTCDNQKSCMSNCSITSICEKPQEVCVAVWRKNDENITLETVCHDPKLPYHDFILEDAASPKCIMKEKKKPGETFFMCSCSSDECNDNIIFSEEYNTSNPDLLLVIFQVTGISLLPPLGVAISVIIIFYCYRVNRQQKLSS
# [7] = target: AA-TGFB-081 (TGFB-081), TGF-BR2 ECD-ICOS TM-ICOS ICD
# [8] = target: AA-TGFB-052 (TGFB-052), TGF-BR2 ECD-CD28 TM-41BB ICD
# [9] = target: AA-TGFB-086 (TGFB-086), TGF-BR2 ECD-CD28 Long TM-IRAK4 ICD
# Sequence of AA-TGFB-086 (TGFB-086), TGF-BR2 ECD-CD28 Long TM-IRAK4 ICD (chain, as listed by the source limits assumed, form in doubt): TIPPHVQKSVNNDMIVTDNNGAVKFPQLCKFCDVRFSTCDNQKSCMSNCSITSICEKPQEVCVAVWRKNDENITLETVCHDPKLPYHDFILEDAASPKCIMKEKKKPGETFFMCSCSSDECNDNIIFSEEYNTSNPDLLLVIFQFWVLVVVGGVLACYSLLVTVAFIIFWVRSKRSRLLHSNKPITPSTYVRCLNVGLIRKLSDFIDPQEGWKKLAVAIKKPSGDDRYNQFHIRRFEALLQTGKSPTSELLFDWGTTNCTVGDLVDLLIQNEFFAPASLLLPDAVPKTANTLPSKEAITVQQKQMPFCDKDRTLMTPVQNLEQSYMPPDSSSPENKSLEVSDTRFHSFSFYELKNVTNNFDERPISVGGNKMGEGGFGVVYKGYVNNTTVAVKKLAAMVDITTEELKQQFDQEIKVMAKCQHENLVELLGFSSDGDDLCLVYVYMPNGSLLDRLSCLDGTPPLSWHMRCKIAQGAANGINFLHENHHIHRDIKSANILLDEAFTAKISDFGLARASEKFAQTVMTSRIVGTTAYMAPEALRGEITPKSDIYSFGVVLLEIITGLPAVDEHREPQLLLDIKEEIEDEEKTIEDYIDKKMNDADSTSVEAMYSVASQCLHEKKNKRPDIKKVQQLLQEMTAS
# [10] = target: AA-TGFB-088 (TGFB-088), TGF-BR2 ECD-DR3 TM-DR3 ICD
# [11] = target: AA-TGFB-094 (TGFB-094), TGF-BR2 ECD-CD28 Long TM-Lyn ICD
# Sequence of AA-TGFB-094 (TGFB-094), TGF-BR2 ECD-CD28 Long TM-Lyn ICD (chain, as listed by the source limits assumed, form in doubt): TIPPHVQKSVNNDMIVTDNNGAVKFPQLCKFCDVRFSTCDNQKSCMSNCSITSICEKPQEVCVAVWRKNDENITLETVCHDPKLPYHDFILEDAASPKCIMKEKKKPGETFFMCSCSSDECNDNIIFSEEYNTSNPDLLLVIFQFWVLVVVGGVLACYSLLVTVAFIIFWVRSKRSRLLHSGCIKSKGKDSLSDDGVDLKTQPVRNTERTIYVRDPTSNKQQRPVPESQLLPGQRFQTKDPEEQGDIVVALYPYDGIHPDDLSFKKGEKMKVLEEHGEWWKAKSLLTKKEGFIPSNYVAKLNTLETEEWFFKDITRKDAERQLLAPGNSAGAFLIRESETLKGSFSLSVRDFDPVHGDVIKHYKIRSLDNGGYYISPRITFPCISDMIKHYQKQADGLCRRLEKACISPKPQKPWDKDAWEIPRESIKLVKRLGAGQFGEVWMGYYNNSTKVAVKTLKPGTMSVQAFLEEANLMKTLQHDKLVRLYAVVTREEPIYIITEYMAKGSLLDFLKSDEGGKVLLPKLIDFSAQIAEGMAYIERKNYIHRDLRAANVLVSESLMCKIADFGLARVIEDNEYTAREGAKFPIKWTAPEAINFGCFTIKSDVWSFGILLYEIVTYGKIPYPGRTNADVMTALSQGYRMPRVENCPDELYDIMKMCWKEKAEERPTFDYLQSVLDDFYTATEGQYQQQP
# [12] = target: AA-TGFB-058 (TGFB-058), TGF-BR2 ECD-DAP12 TM-DAP12 ICD
# [13] = target: AA-TGFB-066 (TGFB-066), TGF-BR2 ECD-CD28 Long TM-GRB2 ICD
# [14] = target: AA-TGFB-072 (TGFB-072), TGF-BR2 ECD-SLAMF6 TM-SLAMF6 ICD
# [15] = target: AA-TGFB-067 (TGFB-067), TGF-BR2 ECD-FCGR2A TM-FCGR2A ICD
# [16] = target: AA-TGFB-074 (TGFB-074), TGF-BR2 ECD-LFA2 TM-LFA2 ICD
# Sequence of AA-TGFB-074 (TGFB-074), TGF-BR2 ECD-LFA2 TM-LFA2 ICD (chain, as listed by the source limits assumed, form in doubt): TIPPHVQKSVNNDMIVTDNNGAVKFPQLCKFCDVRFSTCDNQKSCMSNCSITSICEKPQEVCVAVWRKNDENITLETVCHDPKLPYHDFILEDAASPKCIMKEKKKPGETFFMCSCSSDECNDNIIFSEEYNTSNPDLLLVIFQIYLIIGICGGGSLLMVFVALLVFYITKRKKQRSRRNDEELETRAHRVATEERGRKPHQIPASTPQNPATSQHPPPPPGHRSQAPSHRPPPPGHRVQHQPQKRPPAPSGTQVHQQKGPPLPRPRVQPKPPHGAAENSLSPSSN
# [17] = target: AA-TGFB-084 (TGFB-084), TGF-BR2 ECD-NKp30 TM-NKp30 ICD
# Sequence of AA-TGFB-084 (TGFB-084), TGF-BR2 ECD-NKp30 TM-NKp30 ICD (chain, as listed by the source limits assumed, form in doubt): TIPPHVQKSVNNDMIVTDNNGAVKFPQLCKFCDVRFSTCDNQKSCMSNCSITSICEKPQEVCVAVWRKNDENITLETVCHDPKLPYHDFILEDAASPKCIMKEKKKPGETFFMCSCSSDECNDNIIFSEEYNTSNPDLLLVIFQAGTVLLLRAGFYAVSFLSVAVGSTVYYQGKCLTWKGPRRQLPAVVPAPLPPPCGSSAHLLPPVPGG
# [18] = target: AA-TGFB-095 (TGFB-095), TGF-BR2 ECD-CD28 Long TM-YES1 ICD
# Sequence of AA-TGFB-095 (TGFB-095), TGF-BR2 ECD-CD28 Long TM-YES1 ICD (chain, as listed by the source limits assumed, form in doubt): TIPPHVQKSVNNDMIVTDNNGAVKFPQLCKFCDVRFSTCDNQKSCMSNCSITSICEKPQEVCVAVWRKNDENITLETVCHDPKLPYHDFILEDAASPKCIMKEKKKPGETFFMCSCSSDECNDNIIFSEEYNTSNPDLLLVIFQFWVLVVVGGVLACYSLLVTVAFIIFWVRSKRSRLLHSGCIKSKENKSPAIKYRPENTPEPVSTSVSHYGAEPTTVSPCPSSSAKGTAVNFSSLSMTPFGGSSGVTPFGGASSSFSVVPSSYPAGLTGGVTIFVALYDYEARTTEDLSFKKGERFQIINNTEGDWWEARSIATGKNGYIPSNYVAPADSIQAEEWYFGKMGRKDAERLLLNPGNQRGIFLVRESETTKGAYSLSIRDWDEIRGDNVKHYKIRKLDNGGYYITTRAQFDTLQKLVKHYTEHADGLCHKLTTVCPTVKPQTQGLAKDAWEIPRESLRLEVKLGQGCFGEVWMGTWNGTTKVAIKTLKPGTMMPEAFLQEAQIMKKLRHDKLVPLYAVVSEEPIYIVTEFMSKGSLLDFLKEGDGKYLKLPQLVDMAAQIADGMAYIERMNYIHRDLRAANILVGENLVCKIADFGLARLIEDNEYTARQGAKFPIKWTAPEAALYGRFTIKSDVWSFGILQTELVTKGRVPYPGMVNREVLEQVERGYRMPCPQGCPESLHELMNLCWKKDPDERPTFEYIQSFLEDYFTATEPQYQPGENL
# [19] = target: AA-TGFB-075 (TGFB-075), TGF-BR2 ECD-SLAMF3 TM-SLAMF3 ICD
# Sequence of AA-TGFB-075 (TGFB-075), TGF-BR2 ECD-SLAMF3 TM-SLAMF3 ICD (chain, as listed by the source limits assumed, form in doubt): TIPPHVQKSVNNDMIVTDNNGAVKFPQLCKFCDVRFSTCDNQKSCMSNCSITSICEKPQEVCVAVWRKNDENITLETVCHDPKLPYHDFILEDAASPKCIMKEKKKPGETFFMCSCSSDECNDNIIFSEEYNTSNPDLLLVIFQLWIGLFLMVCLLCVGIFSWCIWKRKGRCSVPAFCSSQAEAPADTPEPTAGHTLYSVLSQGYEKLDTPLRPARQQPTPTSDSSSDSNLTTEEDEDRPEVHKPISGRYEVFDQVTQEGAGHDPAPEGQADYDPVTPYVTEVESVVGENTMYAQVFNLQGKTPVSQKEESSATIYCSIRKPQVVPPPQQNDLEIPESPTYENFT
# [20] = target: AA-TGFB-062 (TGFB-062), TGF-BR2 ECD-CD28 Long TM-TRAF6 ICD
# Sequence of AA-TGFB-062 (TGFB-062), TGF-BR2 ECD-CD28 Long TM-TRAF6 ICD (chain, as listed by the source limits assumed, form in doubt): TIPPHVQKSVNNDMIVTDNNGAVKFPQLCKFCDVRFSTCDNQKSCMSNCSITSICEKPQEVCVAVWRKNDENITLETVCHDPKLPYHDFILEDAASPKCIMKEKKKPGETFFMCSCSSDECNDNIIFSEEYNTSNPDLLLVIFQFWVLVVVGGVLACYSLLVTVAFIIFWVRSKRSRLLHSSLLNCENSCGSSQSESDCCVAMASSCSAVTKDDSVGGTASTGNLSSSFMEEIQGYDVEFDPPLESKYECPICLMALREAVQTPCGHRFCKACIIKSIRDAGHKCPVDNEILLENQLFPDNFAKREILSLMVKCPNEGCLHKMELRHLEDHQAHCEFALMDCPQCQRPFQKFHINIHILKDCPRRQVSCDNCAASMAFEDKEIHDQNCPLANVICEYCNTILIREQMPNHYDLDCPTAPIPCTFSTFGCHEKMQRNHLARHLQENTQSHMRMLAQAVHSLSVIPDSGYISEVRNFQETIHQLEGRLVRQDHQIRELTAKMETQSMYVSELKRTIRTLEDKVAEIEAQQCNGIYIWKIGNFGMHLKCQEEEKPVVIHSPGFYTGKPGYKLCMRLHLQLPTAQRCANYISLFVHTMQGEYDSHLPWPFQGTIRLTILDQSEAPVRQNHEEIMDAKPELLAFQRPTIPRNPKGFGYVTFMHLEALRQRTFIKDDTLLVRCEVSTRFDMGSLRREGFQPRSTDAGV
# [21] = target: AA-TGFB-070 (TGFB-070), TGF-BR2 ECD-SLAMF1 TM-SLAMF1 ICD
# [22] = target: AA-TGFB-087 (TGFB-087), TGF-BR2 ECD-TLR4 TM-TLR4 ICD
# Sequence of AA-TGFB-087 (TGFB-087), TGF-BR2 ECD-TLR4 TM-TLR4 ICD (chain, as listed by the source limits assumed, form in doubt): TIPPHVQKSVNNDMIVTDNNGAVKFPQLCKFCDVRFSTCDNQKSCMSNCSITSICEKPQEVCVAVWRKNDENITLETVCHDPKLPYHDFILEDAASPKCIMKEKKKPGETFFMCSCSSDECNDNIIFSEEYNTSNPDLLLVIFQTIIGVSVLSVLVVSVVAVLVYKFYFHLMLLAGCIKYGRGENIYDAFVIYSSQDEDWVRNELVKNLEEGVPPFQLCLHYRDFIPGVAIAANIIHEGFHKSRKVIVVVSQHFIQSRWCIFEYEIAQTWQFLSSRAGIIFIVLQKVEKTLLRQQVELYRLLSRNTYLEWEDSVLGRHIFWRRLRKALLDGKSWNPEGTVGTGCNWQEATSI
# [23] = target: AA-TGFB-064 (TGFB-064), TGF-BR2 ECD-CD28 Long TM-TIRAP ICD
# Sequence of AA-TGFB-064 (TGFB-064), TGF-BR2 ECD-CD28 Long TM-TIRAP ICD (chain, as listed by the source limits assumed, form in doubt): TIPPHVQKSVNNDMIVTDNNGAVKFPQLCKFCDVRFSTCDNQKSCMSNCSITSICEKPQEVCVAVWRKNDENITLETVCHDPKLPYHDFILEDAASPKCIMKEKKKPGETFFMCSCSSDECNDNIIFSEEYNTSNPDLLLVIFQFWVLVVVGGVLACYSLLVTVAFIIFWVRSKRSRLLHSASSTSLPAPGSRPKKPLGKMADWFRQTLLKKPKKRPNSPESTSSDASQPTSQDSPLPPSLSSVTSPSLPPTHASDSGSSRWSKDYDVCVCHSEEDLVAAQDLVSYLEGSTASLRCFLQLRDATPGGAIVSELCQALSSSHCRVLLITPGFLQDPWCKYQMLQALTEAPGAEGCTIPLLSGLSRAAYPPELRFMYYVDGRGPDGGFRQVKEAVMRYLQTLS
# Sequence of AA-TGFB-083 (TGFB-083), TGF-BR2 ECD-NKp44 TM-NKp44 ICD (chain, as listed by the source limits assumed, form in doubt): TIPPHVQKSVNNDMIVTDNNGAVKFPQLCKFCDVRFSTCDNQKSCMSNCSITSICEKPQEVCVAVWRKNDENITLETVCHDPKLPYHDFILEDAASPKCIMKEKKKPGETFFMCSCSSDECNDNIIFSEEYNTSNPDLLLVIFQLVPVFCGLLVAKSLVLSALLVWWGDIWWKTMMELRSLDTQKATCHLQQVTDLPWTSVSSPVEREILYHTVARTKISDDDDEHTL
# Sequence of recombinant TGF-B1 cytokine (P01137 279-390 limits assumed): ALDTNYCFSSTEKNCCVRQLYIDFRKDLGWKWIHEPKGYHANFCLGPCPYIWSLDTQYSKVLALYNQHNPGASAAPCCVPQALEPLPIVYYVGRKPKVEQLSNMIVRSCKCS
substance,measurement,setting,value
recombinant TGF-B1 cytokine (from UniProt P01137 279-390) (ligand),"5-Day Fold Expansion of NK cells, 10 ng/mL TGF-B1",[1],1 fold
same,"Average % Killing (SKOV-3), 10 ng/mL TGF-B1",[1],16%
same,"Average IFNg Secretion, 10 ng/mL TGF-B1",[1],> 9000 pg/mL
same,"Average IP-10 Secretion, 10 ng/mL TGF-B1",[1],2330
same,"5-Day Fold Expansion of NK cells, 10 ng/mL TGF-B1",[2],2.52 fold
same,"Average % Killing (SKOV-3), 10 ng/mL TGF-B1",[2],14.4%
same,"Average IFNg Secretion, 10 ng/mL TGF-B1",[2],6640 pg/mL
same,"Average IP-10 Secretion, 10 ng/mL TGF-B1",[2],1410
same,"5-Day Fold Expansion of NK cells, 10 ng/mL TGF-B1",[3],0.24 fold
same,"Average % Killing (SKOV-3), 10 ng/mL TGF-B1",[3],1.9%
same,"5-Day Fold Expansion of NK cells, 10 ng/mL TGF-B1",[4],0.41 fold
same,"Average % Killing (SKOV-3), 10 ng/mL TGF-B1",[4],2.07%
same,"Average IFNg Secretion, 10 ng/mL TGF-B1",[4],1.68 pg/mL
same,"5-Day Fold Expansion of NK cells, 10 ng/mL TGF-B1",[5],2.08 fold
same,"Average % Killing (SKOV-3), 10 ng/mL TGF-B1",[5],14.1%
same,"Average IFNg Secretion, 10 ng/mL TGF-B1",[5],3960 pg/mL
same,"Average IP-10 Secretion, 10 ng/mL TGF-B1",[5],968
same,"5-Day Fold Expansion of NK cells, 10 ng/mL TGF-B1",[6],2 fold
same,"Average % Killing (SKOV-3), 10 ng/mL TGF-B1",[6],24.1%
same,"Average IFNg Secretion, 10 ng/mL TGF-B1",[6],> 9000 pg/mL
same,"Average IP-10 Secretion, 10 ng/mL TGF-B1",[6],2150
same,"CD69, fold-change of MFI over no stimulation, High (0.05 ug/mL)",[6],1.2 fold
same,"CD69, fold-change of MFI over no stimulation, Low (0.002 ug/mL)",[6],1.4 fold
same,"CD69, fold-change of MFI over no stimulation, Med. (0.01 ug/mL)",[6],1.2 fold
same,"GFP, fold-change of MFI over no stimulation, High (0.05 ug/mL)",[6],0.8 fold
same,"GFP, fold-change of MFI over no stimulation, Low (0.002 ug/mL)",[6],0.7 fold
same,"GFP, fold-change of MFI over no stimulation, Med. (0.01 ug/mL)",[6],0.7 fold
same,"5-Day Fold Expansion of NK cells, 10 ng/mL TGF-B1",[7],2.31 fold
same,"Average % Killing (SKOV-3), 10 ng/mL TGF-B1",[7],18.8%
same,"Average IFNg Secretion, 10 ng/mL TGF-B1",[7],> 9000 pg/mL
same,"Average IP-10 Secretion, 10 ng/mL TGF-B1",[7],2180
same,"5-Day Fold Expansion of NK cells, 10 ng/mL TGF-B1",[8],1.57 fold
same,"Average % Killing (SKOV-3), 10 ng/mL TGF-B1",[8],12.8%
same,"Average IFNg Secretion, 10 ng/mL TGF-B1",[8],8770 pg/mL
same,"Average IP-10 Secretion, 10 ng/mL TGF-B1",[8],976
same,"5-Day Fold Expansion of NK cells, 10 ng/mL TGF-B1",[9],1.76 fold
same,"Average % Killing (SKOV-3), 10 ng/mL TGF-B1",[9],7.83%
same,"Average IFNg Secretion, 10 ng/mL TGF-B1",[9],3150 pg/mL
same,"Average IP-10 Secretion, 10 ng/mL TGF-B1",[9],938
same,"5-Day Fold Expansion of NK cells, 10 ng/mL TGF-B1",[10],0.66 fold
same,"Average % Killing (SKOV-3), 10 ng/mL TGF-B1",[10],2.23%
same,"5-Day Fold Expansion of NK cells, 10 ng/mL TGF-B1",[11],1.2 fold
same,"Average % Killing (SKOV-3), 10 ng/mL TGF-B1",[11],16.5%
same,"Average IFNg Secretion, 10 ng/mL TGF-B1",[11],> 9000 pg/mL
same,"Average IP-10 Secretion, 10 ng/mL TGF-B1",[11],3210
same,"5-Day Fold Expansion of NK cells, 10 ng/mL TGF-B1",[12],1.76 fold
same,"Average % Killing (SKOV-3), 10 ng/mL TGF-B1",[12],8.35%
same,"Average IFNg Secretion, 10 ng/mL TGF-B1",[12],2360 pg/mL
same,"Average IP-10 Secretion, 10 ng/mL TGF-B1",[12],837
same,"5-Day Fold Expansion of NK cells, 10 ng/mL TGF-B1",[13],1.44 fold
same,"Average % Killing (SKOV-3), 10 ng/mL TGF-B1",[13],8.89%
same,"Average IFNg Secretion, 10 ng/mL TGF-B1",[13],3270 pg/mL
same,"Average IP-10 Secretion, 10 ng/mL TGF-B1",[13],1240
same,"5-Day Fold Expansion of NK cells, 10 ng/mL TGF-B1",[14],3.89 fold
same,"Average % Killing (SKOV-3), 10 ng/mL TGF-B1",[14],15%
same,"Average IFNg Secretion, 10 ng/mL TGF-B1",[14],8700 pg/mL
same,"Average IP-10 Secretion, 10 ng/mL TGF-B1",[14],1880
same,"5-Day Fold Expansion of NK cells, 10 ng/mL TGF-B1",[15],1.6 fold
same,"Average % Killing (SKOV-3), 10 ng/mL TGF-B1",[15],11.8%
same,"Average IFNg Secretion, 10 ng/mL TGF-B1",[15],4640 pg/mL
same,"Average IP-10 Secretion, 10 ng/mL TGF-B1",[15],1040
same,"5-Day Fold Expansion of NK cells, 10 ng/mL TGF-B1",[16],2.4 fold
same,"Average % Killing (SKOV-3), 10 ng/mL TGF-B1",[16],11.2%
same,"Average IFNg Secretion, 10 ng/mL TGF-B1",[16],5730 pg/mL
same,"Average IP-10 Secretion, 10 ng/mL TGF-B1",[16],1170
same,"5-Day Fold Expansion of NK cells, 10 ng/mL TGF-B1",[17],2.19 fold
same,"Average % Killing (SKOV-3), 10 ng/mL TGF-B1",[17],13.7%
same,"Average IFNg Secretion, 10 ng/mL TGF-B1",[17],4870 pg/mL
same,"Average IP-10 Secretion, 10 ng/mL TGF-B1",[17],1340
same,"5-Day Fold Expansion of NK cells, 10 ng/mL TGF-B1",[18],1.69 fold
same,"Average % Killing (SKOV-3), 10 ng/mL TGF-B1",[18],11.8%
same,"Average IFNg Secretion, 10 ng/mL TGF-B1",[18],6080 pg/mL
same,"Average IP-10 Secretion, 10 ng/mL TGF-B1",[18],1890
same,"5-Day Fold Expansion of NK cells, 10 ng/mL TGF-B1",[19],3.86 fold
same,"Average % Killing (SKOV-3), 10 ng/mL TGF-B1",[19],9.64%
same,"Average IFNg Secretion, 10 ng/mL TGF-B1",[19],4420 pg/mL
same,"Average IP-10 Secretion, 10 ng/mL TGF-B1",[19],1040
same,"5-Day Fold Expansion of NK cells, 10 ng/mL TGF-B1",[20],1.41 fold
same,"Average % Killing (SKOV-3), 10 ng/mL TGF-B1",[20],8.4%
same,"Average IFNg Secretion, 10 ng/mL TGF-B1",[20],3010 pg/mL
same,"Average IP-10 Secretion, 10 ng/mL TGF-B1",[20],1370
same,"5-Day Fold Expansion of NK cells, 10 ng/mL TGF-B1",[21],4.03 fold
same,"Average % Killing (SKOV-3), 10 ng/mL TGF-B1",[21],13.2%
same,"Average IFNg Secretion, 10 ng/mL TGF-B1",[21],7690 pg/mL
same,"Average IP-10 Secretion, 10 ng/mL TGF-B1",[21],1630
same,"5-Day Fold Expansion of NK cells, 10 ng/mL TGF-B1",[22],2.51 fold
same,"Average % Killing (SKOV-3), 10 ng/mL TGF-B1",[22],11.9%
same,"Average IFNg Secretion, 10 ng/mL TGF-B1",[22],6060 pg/mL
same,"Average IP-10 Secretion, 10 ng/mL TGF-B1",[22],1260
same,"5-Day Fold Expansion of NK cells, 10 ng/mL TGF-B1",[23],1.04 fold
same,"Average % Killing (SKOV-3), 10 ng/mL TGF-B1",[23],9.89%
same,"Average IFNg Secretion, 10 ng/mL TGF-B1",[23],4790 pg/mL
same,"Average IP-10 Secretion, 10 ng/mL TGF-B1",[23],1540
